Like-named read-outs stand apart in the source and are kept apart here. Numbered stars: 1 amine (or outer) side, 2 acyl side, 3 side chain; on linkers, the order of the positions; unused ones are H or OH. Bridge positions count the residues as written; N and C are the ends. Square brackets hold non-standard residues; d marks the D form. Triazole bridges read from a SMILES are 1,4-linked. Side chains are listed from the residue outwards. Peptide text beside a SMILES is read from it. * marks the point of attachment. DOTA = O=C(O)CN1CCN(CC(=O)O)CCN(CC(=O)*)CCN(CC(=O)O)CC1; Pteroyl = Nc1nc2ncc(CNc3ccc(C(=O)*)cc3)nc2c(=O)[nH]1; Biotin = O=C1N[C@H]2[C@H](CS[C@H]2CCCCC(=O)*)N1; PEG10 = NCCOCCOCCOCCOCCOCCOCCOCCOCCOCCOCCC(=O)O; Butanoyl(4-(4-MePh)) = Cc1ccc(CCCC(=O)*)cc1; Lys(N3) = [N-]=[N+]=NCCCC[C@H](N)C(=O)O; γGlu = O=C(O)[C@H](CCC(=O)[*:2])N[*:1]; AEEEA = NCCOCCOCCOCC(=O)O; Pra = C#CC[C@H](N)C(=O)O
Columns and labels:
FOLR1 = biological target: T1, FOLR1 (Homo sapiens, UniProt P15328); test: ELISA assay of FOLR1 binding
T1 construct: His; purchased SinoBiological 11241-H08H
T1 sequence (P15328 25-234): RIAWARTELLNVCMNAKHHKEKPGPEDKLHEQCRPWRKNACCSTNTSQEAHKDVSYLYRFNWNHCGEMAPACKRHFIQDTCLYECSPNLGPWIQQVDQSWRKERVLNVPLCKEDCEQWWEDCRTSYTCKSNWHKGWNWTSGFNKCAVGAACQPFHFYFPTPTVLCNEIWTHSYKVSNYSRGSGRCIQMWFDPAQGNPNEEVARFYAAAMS
Source text: FIG. 5 is a diagram of ELISA assay of FOLR1 binding of heterobiligands.
Nonclinical studies were first conducted with Folate-hshta-PEG10-PEG10-K(Biotin), where Folate-hshta is the targeting heterobiligand, PEG10 is a deca(ethylene glycol) linker, and K(Biotin) is the detection label.

OVCAR3 xenografts = test: 177Lu FOLR1 radioligand therapy in OVCAR3 xenograft model; assay type: in vivo, mouse; conditions: for body weight change: single dose
Description: Water and food were provided ad libitum. […] Tumor growth was monitored by caliper measurements.
OVCAR3 tumor bearing mice were used to study FOLR1-directed radioligand therapy (RLT) for treatment of ovarian cancer. Animals were administered a single dose of heterobiligand (vehicle control) or 111, 37, 18.5, 9.25, or 3.7 MBq [^177Lu]DOTA-labeled heterobiligand. Mice received the dose intravenously (i.v.) via the tail vein. To monitor the effect of the RLT, tumor size measurements were taken twice weekly and body weights were measured.
The engraftment was allowed to expand until palpable tumor sizes ranging in size from 218-384 mm^3 were detected. […] These observed effects were consistant with radiation overdosing. […] The best response was observed using 9.25 MBq Lu-177 Heterobiligand (compound #2809).
Single dose treatments at 18.5 MBq/nmol specific activity. OVCAR3 mouse model was used. 10^7 cell tumors were implanted in the mice one month before administration of ^177Lu-#6305. Five mice each were administered Cold #6305, 9.25 MBq Lu177-#6305, and 14.8 MBq Lu177-#6305, and two mice were administered 29.6 MBq Lu177-#6305. Tumor growth and body weight were then monitored.
Female NSG mice were implanted subcutaneously with OVCAR3 cells. Once tumors reached volumes of 200 mm^3, the animals were treated with 177-Lu 7327. Three treatment arms of 9.25 MBq, 14.8 MBq, and 29.6 MBq were studied.
Female NSG mice were implanted subcutaneously with human OVCAR3 (FOLR+) ovarian cancer cells. Once tumors reached volumes of 200 mm^3, the animals were treated with Indi ^177Lu-7327. One treatment arm of 74 MBq and a control group of 0 MBq were studied (FIGS. 41 and 38A). […] The second dose was administered 21 days following the first dose. Statistically significant differential between treated and control was reached 24 days post-injection (three days following the second dose) for the 74 MBq arm. P values (* for p≤0.05, ** for p≤0.01) were determined by ordinary one-way ANOVA with Tukey's multiple comparisons test.

[1] = Maximum tolerated dose / tolerability study
Description: Animals were monitored for signs of toxicity and weighed twice weekly. […] The second and third doses were administered 21 days following the previous dose.
Two separate MTD experiments were undertaken. […] A second experiment interrogated lower doses.
Mouse body weight and behavior were monitored. […] The second and third doses were administered 21 days following the previous dose.

[2] = Gamma counting of tissue radioactivity; assay type: in vivo, mouse; conditions: for kidney radioactivity / liver radioactivity / tumor radioactivity: Day 28 post-injection
Source text: 7 days after Lu177-#6305 injection, the 29.6 MBq group lost 20% body weight. These mice were sacrificed. Tissues and plasma were collected for evaluation of radioactivity by gamma counting. The toxicity may have resulted from its accumulation in the kidneys and liver (FIG. 28). At study endpoint (Day 28 post-injection), plasma, tumors, kidneys, lungs, hearts, livers, and muscles from 9.25 MBq and 14.8 MBq treatment groups were collected for evaluation of radioactivity by gamma counting (FIG. 29).

[3] = albumin binder / DOTA tagged biotin-labeled heterobiligands, read-out: EC50
[4] = 29.6 MBq group, Day 7 post-injection

For `C[C@H](O)[C@H]1NC(=O)[C@@H](Cc2c[nH]cn2)NC(=O)[C@@H](CO)NC(=O)[C@@H](Cc2c[nH]cn2)NC(=O)[C@@H](NC(=O)CC[C@H](NC(=O)c2ccc(NCc3cnc4nc(N)[nH]c(=O)c4n3)cc2)C(=O)O)Cc2cn(nn2)CCCC[C@@H](C(=O)NCCOCCOCCOCC(=O)N[C@@H](CCCCNC(=O)CN2CCN(CC(=O)O)CCN(CC(=O)O)CCN(CC(=O)O)CC2)C(=O)NCCOCCOCCOCCOCCOCCOCCOCCOCCOCCOCCC(=O)NCCOCCOCCOCCOCCOCCOCCOCCOCCOCCOCCC(=O)N[C@@H](CCCCNC(=O)CCCC[C@@H]2SC[C@@H]3NC(=O)N[C@@H]32)C(N)=O)NC(=O)[C@@H](C)NC1=O` [Folate-hshta-DOTA] ({Pteroyl-γGlu}-[Pra][dH][dS][dH][dT][dA][Lys(N3)][AEEEA]K(DOTA)[PEG10][PEG10]K(Biotin)-NH2; triazole 1-7), which EC50 (FOLR1; [3]) is on record?
The EC50 was 0.098 nM.

Which EC50 (FOLR1; [3]) does the source give for `Cc1ccc(CCCC(=O)NCCCC[C@H](NC(=O)COCCOCCOCCNC(=O)[C@@H]2CCCCn3cc(nn3)C[C@H](NC(=O)CC[C@H](NC(=O)c3ccc(NCc4cnc5nc(N)[nH]c(=O)c5n4)cc3)C(=O)O)C(=O)N[C@H](Cc3c[nH]cn3)C(=O)N[C@H](CO)C(=O)N[C@H](Cc3c[nH]cn3)C(=O)N[C@H]([C@H](C)O)C(=O)N[C@H](C)C(=O)N2)C(=O)NCCOCCOCCOCCOCCOCCOCCOCCOCCOCCOCCC(=O)NCCOCCOCCOCCOCCOCCOCCOCCOCCOCCOCCC(=O)N[C@@H](CCCCNC(=O)CCCC[C@@H]2SC[C@@H]3NC(=O)N[C@@H]32)C(N)=O)cc1` [Folate-hshta-MPBA] ({Pteroyl-γGlu}-[Pra][dH][dS][dH][dT][dA][Lys(N3)][AEEEA]K(Butanoyl(4-(4-MePh)))[PEG10][PEG10]K(Biotin)-NH2; triazole 1-7) here?
The EC50 was 0.11 nM.

Which “loss of body weight” value (OVCAR3 xenografts; 29.6 MBq, after second dose) does the source give for `C[C@H](O)[C@H]1NC(=O)[C@@H](Cc2cnc[nH]2)NC(=O)[C@@H](CO)NC(=O)[C@@H](Cc2cnc[nH]2)NC(=O)[C@@H](NC(=O)CC[C@H](NC(=O)c2ccc(NCc3cnc4nc(N)[nH]c(=O)c4n3)cc2)C(=O)O)Cc2cn(nn2)CCCC[C@@H](C(=O)NCC(=O)N[C@@H](Cc2ccccc2)C(=O)N[C@@H](CCCCNC(=O)CN2CCN(CC(=O)O)CCN(CC(=O)O)CCN(CC(=O)O)CC2)C(=O)O)NC(=O)[C@@H](C)NC1=O` [Indi ^177Lu-7327, Folate-hshta-G-F-K(^177Lu-DOTA)-OH, metal not drawn] ({Pteroyl-γGlu}-[Pra][dH][dS][dH][dT][dA][Lys(N3)]GFK(DOTA)-OH; triazole 1-7) here?
Its value is 5-10%.

What about the body weight (OVCAR3 xenografts; highest dose (29.6 MBq), after second dose) of the same compound?
The body weight was “modest loss of body weight”.

And the “body weights of treated mice” value (OVCAR3 xenografts; mouse, in vivo)?
Its value is “normal body weights (+/−10%)”.

What about the “tolerability of first dose” value (OVCAR3 xenografts; mouse, in vivo) of the same compound?
The value was “well tolerated”.

What about the “radioactive dose tolerated, three treatments” value ([1]; healthy, non-tumor bearing female NSG mice) of the same compound?
Its value is “up to 111 MBq”.

With `C[C@H](O)[C@H]1NC(=O)[C@@H](Cc2ccc(O)cc2)NC(=O)[C@@H](CCCNC(=N)N)NC(=O)[C@@H](CCC(=O)O)NC(=O)[C@@H](CC(=O)O)NC(=O)[C@@H](NC(=O)[C@H](CCCCNC(=O)COCCOCCOCCNC(=O)CC[C@H](NC(=O)c2ccc(NCc3cnc4nc(N)[nH]c(=O)c4n3)cc2)C(=O)O)NC(=O)CCOCCOCCOCCOCCOCCOCCOCCOCCOCCOCCNC(=O)CCOCCOCCOCCOCCOCCOCCOCCOCCOCCOCCNC(=O)CCCC[C@@H]2SC[C@@H]3NC(=O)N[C@@H]32)Cc2cn(nn2)CCCC[C@@H](C(N)=O)NC1=O` [Lys (PEG3 -Folate)-deryt] ({Biotin-PEG10-PEG10}-K([AEEEA-γGlu-Pteroyl])[Pra][dD][dE][dR][dY][dT][Lys(N3)]-NH2; triazole 2-8) as the compound, how does the EC50 (FOLR1; EC50, deryt heterobiligands, ELISA) read?
Its EC50 is 0.16 nM.

Which body weight change (OVCAR3 xenografts; 9.25 MBq and 14.8 MBq) does the source give for `Cc1ccc(CCCC(=O)NCCCC[C@H](NC(=O)[C@@H]2CCCCn3cc(nn3)C[C@H](NC(=O)CC[C@H](NC(=O)c3ccc(NCc4cnc5nc(N)[nH]c(=O)c5n4)cc3)C(=O)O)C(=O)N[C@H](Cc3c[nH]cn3)C(=O)N[C@H](CO)C(=O)N[C@H](Cc3c[nH]cn3)C(=O)N[C@H]([C@H](C)O)C(=O)N[C@H](C)C(=O)N2)C(=O)NCC(=O)N[C@@H](Cc2ccccc2)C(=O)N[C@@H](CCCCNC(=O)CN2CCN(CC(=O)O)CCN(CC(=O)O)CCN(CC(=O)O)CC2)C(=O)O)cc1` [^177Lu-#6305, metal not drawn] ({Pteroyl-γGlu}-[Pra][dH][dS][dH][dT][dA][Lys(N3)]K(Butanoyl(4-(4-MePh)))GFK(DOTA)-OH; triazole 1-7) here?
Its body weight change is “No significant body weight change”.

And the body weight loss (OVCAR3 xenografts; 29.6 MBq, 7 days after injection)?
Its body weight loss is 20%.

And the body weight change (OVCAR3 xenografts; 29.6 MBq)?
The body weight change was “substantial body weight decrease”.

And the kidney radioactivity ([2]; 9.25 MBq group)?
Its kidney radioactivity is 414 CPM/g.

And the liver radioactivity ([2]; 9.25 MBq group)?
The liver radioactivity was 685 CPM/g.

What about the tumor radioactivity ([2]; 9.25 MBq group) of the same compound?
The tumor radioactivity was 33 CPM/g.

And the liver/kidney ratio ([2]; 14.8 MBq group on Day 28)?
Its liver/kidney ratio is 1.94.

What about the kidney radioactivity ([2]; 14.8 MBq group) of the same compound?
Its kidney radioactivity is 653 CPM/g.

And the liver radioactivity ([2]; 14.8 MBq group)?
Its liver radioactivity is 1,264 CPM/g.

And the tumor radioactivity ([2]; 14.8 MBq group)?
Its tumor radioactivity is 60 CPM/g.

What about the liver/kidney ratio ([2]; 29.6 MBq group on Day 7) of the same compound?
The liver/kidney ratio was 0.27.

And the “radioactivity in the kidney” value [2, 4]?
Its value is 394,834 CPM/g.

And the “radioactivity in the liver” value [2, 4]?
Its value is 107,374 CPM/g.

And the “radioactivity in the tumor” value [2, 4]?
The value was 42,674 CPM/g.

And the tissue to tissue ratio at 672 h ([2]; mouse, tumor and kidney, total radioactivity, 14.8 MBq group, Day 28)?
The tissue to tissue ratio at 672 h was 0.093.

What about the tissue to tissue ratio at 168 h ([2]; mouse, tumor and kidney, total radioactivity, 29.6 MBq group, Day 7) of the same compound?
Its tissue to tissue ratio at 168 h is 0.108.

And the body weight ([1]; doses of 29.6, 37, 111 and 185 MBq, first dose)?
Its body weight is “weight loss after the first dose”.

What about the “tolerability of second dose” value ([1]; second dose 7 days after the first (29.6-185 MBq)) of the same compound?
The value was “not tolerated”.

And the “tolerability of second dose” value ([1]; second dose administered 21 days (14.8-22.2 MBq))?
Its value is “not tolerated”.

And the body weight ([1]; single dose of 14.8, 18.5 and 22.2 MBq)?
The body weight was “only minimal loss in body weight”.
